{
  "source": "paper PMC10973363",
  "about": "“Insights into the modulation of bacterial NADase activity by phage proteins” (Nature Communications, 2024)",
  "binders": {"B1": {"name": "tail tube protein (TTP) from phage SPR, His-tagged (natural protein)", "chain": "MKTVIQDTADVYFKRKSDGKLVFTAEAQTASFSQAISEEKLRGGIGNKPLYILKSEKEINLTVKNAFFDLEWLAMTQGETIQEETKVKVFDREHGLIVDDTNKVTLKGKPVSDVTFYNKKGLTYKIAVSTDGTYTIPTAFAAAKDKLTAVYQIEKVGRRLAIKASKFSERYEVEYRTIAYNPDTEEVYSDIYIQFPNVSPSGEFEMSLENGNALAPEIKFEALADTDTDEMAVVIEASRDENTAAPVEDTTGSTQSSDLGGTTE", "notes": "tail tube protein of phage SPR, WP_010328117; C-terminal portion aa 240-264 not built in the cryo-EM model of the tube; Cloned into a pET-derived vector with an N-terminal His tag; Alone it polymerises into a tube of hexameric rings (cryo-EM); also called His-tagged TTP; tagged TTP; source: E. coli Rosetta (DE3), purified (Ni-NTA, anion exchange, gel filtration); not shown: His, N-terminal, kept"}, "B2": {"name": "defense-associated sirtuin 2 (DSR2), full-length wild type (enzyme, Bacillus subtilis 29R, UniProt P0DXN8 1-1005, looked up)", "chain": "MVKVDLESKRYGEKLKEVFLMLDNNVVECIKEITESSRNGKLVFFVGAGVSTLSDYPQWWRLVDKYHEELYGSPKKGNYSSDEYLRIPQIFYNVKGEMAFDGILKDFFQVDKPTNPIHDKILAMNPAHVITTNYDNLIDTACWKRGKYFSVISAEEDVANATSSRYLLKVHGDFRKGFKGENVVLKEDDYLNYDQNYPLISNLMKTIIATHTIVFIGYGLGDYNINMLLNWVRKLQKDSFHKPFFIRTDPSPIENETLIYYENKGLRIIDAASLIDSNEYDYLERYSAVMDLLIESQENKFITKDDEVIDYIYGKISPLFALQYIRKIDLKHVFEYDYHFEVNGTVVRHKNKGFGYMERFFELKESCDERSKLSKKQYERFNALFNFFEKNGVICMAKDAGTLNTSIEINSLAYHGKYDVMKKFIEEQSVSIEDDYKKAFFLACLGRWEESYDLYSNIILNSIDESNGCVYYLSQINRYRIYQSITQAVTQFNGLGLLTFGRHYKPFTDEFLARIEREMTNFNIDDLFNGMPFEFQKKYKILEFLSDNQFLYDDTVKLFELTNKVRSEMSEGSYSFGMSSDIVVLLRLYDNLRFLYENCLWSVSFHEFHQYIRNSMSLLIEKAEYERTRDIDELGFSFFGKKSGFFMEYYDFVNISRHFKIDDIKNLERSCSIDKIRFGEQEKIEEYLVGIAEEITKQFSANGMNVVFYTQFISEAKAALYFAKYVKLSEEGLGKIVKALLFYFPERDLDIGKRYVWLERLTKCNELPKSIISIIDDFLVLQAEKHIDQNYSEVSSNGLYSRDYGALIKHFEKNFISKRLSEITLCLTQDKQKQIDFLFKLLPLLSTNAKSHLLSFKSVENINDLMNGIRIGLIDEFTPEHEELIIEYLETRKVNYIVEKEKGIQTFSSNDYMSTFGIWYFLEEINNSKMEEFIGMDDQYDFFVDPENFDYKKFIPSWLKNYNDKLLGKIAGNKHMKHHVIEVLKERVKNSNDKRYLEILMNYFI", "notes": "DSR2 from Bacillus subtilis 29R, WP_029317421; Cloned into the 2CT-10 vector (Addgene plasmid #55209) with His-MBP tag and TEV site; DSR2-TTP was cloned into a pET-derived vector with an N-terminal His tag; also called WT DSR2; full-length DSR2; source: E. coli Rosetta (DE3), purified (Ni-NTA, TEV cleavage, anion exchange, gel filtration); not shown: His, N-terminal, cleaved; MBP, N-terminal, …"}},
  "key": {"[1]": {"biological_target": "T1, DSR2 CTD-only protein (ΔSIR2, aa 304-1005) (Bacillus subtilis 29R, UniProt P0DXN8 304-1005)", "T1 construct": "DSR2 from Bacillus subtilis 29R, WP_029317421, C-terminal domain aa 304-1005; source: E. coli Rosetta (DE3), purified (Ni-NTA, TEV cleavage, anion exchange, gel filtration); not shown: His, N-terminal, cleaved; MBP, N-terminal, cleaved", "T1 sequence (looked up)": "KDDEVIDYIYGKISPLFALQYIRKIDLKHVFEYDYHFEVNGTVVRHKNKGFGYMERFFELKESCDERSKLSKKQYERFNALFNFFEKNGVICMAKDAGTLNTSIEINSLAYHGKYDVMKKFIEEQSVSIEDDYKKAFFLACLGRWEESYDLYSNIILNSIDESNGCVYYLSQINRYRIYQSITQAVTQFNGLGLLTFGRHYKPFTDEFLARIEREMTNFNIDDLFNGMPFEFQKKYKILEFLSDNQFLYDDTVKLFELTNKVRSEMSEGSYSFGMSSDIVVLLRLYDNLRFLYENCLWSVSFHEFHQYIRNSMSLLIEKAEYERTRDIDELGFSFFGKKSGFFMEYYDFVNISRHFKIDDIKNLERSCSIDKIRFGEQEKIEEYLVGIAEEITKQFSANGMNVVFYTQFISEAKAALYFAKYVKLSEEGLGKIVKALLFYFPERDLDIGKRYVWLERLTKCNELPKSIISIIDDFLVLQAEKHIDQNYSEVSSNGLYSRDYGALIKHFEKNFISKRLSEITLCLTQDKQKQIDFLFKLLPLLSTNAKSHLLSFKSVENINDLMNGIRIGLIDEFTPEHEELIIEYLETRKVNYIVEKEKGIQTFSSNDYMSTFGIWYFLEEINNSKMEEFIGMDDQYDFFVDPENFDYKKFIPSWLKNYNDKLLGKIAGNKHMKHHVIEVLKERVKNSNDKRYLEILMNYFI", "experiment": "pull-down; N-terminal His-tagged TTP or DSAD1 on Ni-NTA agarose beads, excess untagged DSR2 variants added, 1 h at 4 °C, 25 mM Tris-HCl pH 7.5, 300 mM NaCl, washes with 10 mM imidazole, SDS-PAGE with Coomassie staining", "conditions": "both partners purified"}, "[2]": {"biological_target": "B2", "experiment": "pull-down; N-terminal His-tagged TTP or DSAD1 on Ni-NTA agarose beads, excess untagged DSR2 variants added, 1 h at 4 °C, 25 mM Tris-HCl pH 7.5, 300 mM NaCl, washes with 10 mM imidazole, SDS-PAGE with Coomassie staining", "conditions": "both partners purified"}, "[3]": {"biological_target": "the molecule itself", "experiment": "cryo-EM structure; protein complexes (co-expressed and co-purified) or TTP tube at 0.5 mg/ml on Quantifoil Au grids, Titan Krios 300 kV"}, "[4]": {"biological_target": "B1", "experiment": "cryo-EM structure; protein complexes (co-expressed and co-purified) or TTP tube at 0.5 mg/ml on Quantifoil Au grids, Titan Krios 300 kV", "conditions": "both partners purified"}, "[5]": {"biological_target": "T2, DSR anti-defense 1 (DSAD1), His-tagged (UniProt Q796A8 1-120)", "T2 construct": "phage-encoded DSAD1, WP_004399562; aa 1-9 not built in the cryo-EM model; Cloned into a pET-derived vector with an N-terminal His tag; also called anti-DSR2 protein; His-tagged DSAD1; source: E. coli Rosetta (DE3), purified (Ni-NTA, anion exchange, gel filtration); not shown: His, N-terminal, kept", "T2 sequence": "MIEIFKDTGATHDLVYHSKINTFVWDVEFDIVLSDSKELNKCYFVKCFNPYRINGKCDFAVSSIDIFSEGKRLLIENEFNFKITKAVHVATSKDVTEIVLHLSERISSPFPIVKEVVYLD", "experiment": "cryo-EM structure; protein complexes (co-expressed and co-purified) or TTP tube at 0.5 mg/ml on Quantifoil Au grids, Titan Krios 300 kV", "conditions": "both partners purified"}, "[6]": {"biological_target": "the molecule itself", "experiment": "native gel or EMSA; purified DSR2 at 1 mg/mL in gel-filtration buffer (25 mM Tris-HCl pH 7.5, 150 mM NaCl, 2 mM DTT) on a 5% native gel, 120 V, 40 min, 4 °C, Coomassie staining"}},
  "data": [
    {"binder": "B1", "values": [
      {"measurement": "binding result", "setting": "[1]", "value": "binds"},
      {"measurement": "binding result", "setting": "[2]", "value": "binds"},
      {"measurement": "stoichiometry N", "setting": "[3]", "value": 6}
    ]},
    {"binder": "B2", "values": [
      {"measurement": "stoichiometry N", "setting": "[4]", "value": 4, "unit": "TTP per DSR2 tetramer"},
      {"measurement": "stoichiometry N", "setting": "[5]", "value": 1, "unit": "DSAD1 per DSR2 dimer"},
      {"measurement": "stoichiometry N", "setting": "[6]", "value": 4}
    ]}
  ]
}
